Molecular target: T1, MSP-MS library tetradecapeptide KWLIHPTFSYnRWP
T1 chain: KWLIHPTFSYNRWP

B1: recombinant mature Sap5 (secreted aspartyl protease 5) from Candida albicans, expressed in Pichia pastoris (protein)
chain: GPVAVTLHNEAITYTADITVGSDNQKLNVIVDTGSSDLWIPDSNVICIPKWRGDKGDFCKSAGSYSPASSRTSQNLNTRFDIKYGDGSYAKGKLYKDTVGIGGVSVRDQLFANVWSTSARKGILGIGFQSGEATEFDYDNLPISLRNQGIIGKAAYSLYLNSAEASTGQIIFGGIDKAKYSGSLVDLPITSEKKLTVGLRSVNVRGRNVDANTNVLLDSGTTISYFTRSIVRNILYAIGAQMKFDSAGNKVYVADCKTSGTIDFQFGNNLKISVPVSEFLFQTYYTSGKPFPKCEVRIRESEDNILGDNFLRSAYVVYNLDDKKISMAPVKYTSESDIVAIN
  kcat/Km (mass spectrometry-based cleavage time course): 4.4×10^4 M^-1 s^-1 (Sap5)

B2: recombinant mature Sap6 (secreted aspartyl protease 6) from Candida albicans, expressed in Pichia pastoris (protein)
chain: GPVAVKLDNEIITYSADITVGSNNQKLSVIVDTGSSDLWIPDSKAICIPKWRGDCGDFCKNNGSYSPAASSTSKNLNTRFEIKYADGSYAKGNLYQDTVGIGGASVKNQLFANVWSTSAHKGILGIGFQTNEATRTPYDNLPISLKKQGIIAKNAYSLFLNSPEASSGQIIFGGIDKAKYSGSLVELPITSDRTLSVGLRSVNVMGRNVNVNAGVLLDSGTTISYFTPSIARSIIYALGGQVHFDSAGNKAYVADCKTSGTVDFQFDKNLKISVPASEFLYQLYYTNGKPYPKCEIRVRESEDNILGDNFMRSAYIVYDLDDKKISMAQVKYTSESNIVAIN
  kcat/Km (mass spectrometry-based cleavage time course): 2.0×10^5 M^-1 s^-1 (Sap6)
